Measured values published in patent US20220127642A1, “CONTROLLABLE GENOME EDITING SYSTEM” (APPLIED STEMCELL, INC., priority 2019, published 2022).
“Also recorded” adds a separate entry of the source.

Test system: sgRNA target sequence in pCAG-EGxxFP plasmid, HEK293T cells
Test: EGxxFP assay of candidate SaCas9 constructs (reconstituted EGFP expression)
Format: cell-based
Details: tetracycline aptamer and conditional exon inserted in position 2 and 8; FIG. 9
Experimental: The activity of candidate SaCas9 genes were then tested in an EGxxFP assay as described by Mashiko D et al. (see Sci Rep (2013) 3:3355). In short, the pCAG-EGxxFP plasmid containing 5′ and 3′ EGFP fragments that shares 482 bp under ubiquitous CAG promoter was prepared. An approximately 500 bp region containing the sgRNA target sequence was placed between EGFP fragments of pCAG-EGxxFP plasmid. The pCAG-EGxxFP plasmid was cotransfected with the candidate SaCas9 construct and sgRNA into HEK293T cells. When the candidate SaCas9 gene is properly transcribed and spliced, the target sequence in the EGxxFT gene was digested by sgRNA guided SaCas9 protein, the homologous dependent repair took place and reconstituted the EGFP expression.

Row | Molecule | regulating the expression of SaCas9 (EGxxFP assay)
1 | M2: tetracycline aptamer domain M2 (SEQ ID NO: 16) controlling splicing of a conditional exon in SaCas9 gene (nucleic acid, listed as DNA, chemistry not fully specified) TTTCAGGCGCTAAAACATACCAGATGAAAGTCTGGAGAGGTGAAGAATACGACCACCTAGCGCCTGAAA | worked well; also recorded: performed the best
2 | M3: tetracycline aptamer domain M3 (SEQ ID NO: 18) controlling splicing of a conditional exon in SaCas9 gene (nucleic acid, listed as DNA, chemistry not fully specified) TTTCAGGCGCCAAAACATACCAGATGAAAGTCTGGAGAGGTGAAGAATACGACCACCTGGCGCCTGAAA | worked well
